Assay results published in IntAct's records for PubMed 21151871.

B1: Guanylate-binding protein 1 (Homo sapiens), P32455 (parent)
chain: MASEIHMTGPMCLIENTNGRLMANPEALKILSAITQPMVVVAIVGLYRTGKSYLMNKLAGKKKGFSLGSTVQSHTKGIWMWCVPHPKKPGHILVLLDTEGLGDVEKGDNQNDSWIFALAVLLSSTFVYNSIGTINQQAMDQLYYVTELTHRIRSKSSPDENENEVEDSADFVSFFPDFVWTLRDFSLDLEADGQPLTPDEYLTYSLKLKKGTSQKDETFNLPRLCIRKFFPKKKCFVFDRPVHRRKLAQLEKLQDEELDPEFVQQVADFCSYIFSNSKTKTLSGGIQVNGPRLESLVLTYVNAISSGDLPCMENAVLALAQIENSAAVQKAIAHYEQQMGQKVQLPTETLQELLDLHRDSEREAIEVFIRSSFKDVDHLFQKELAAQLEKKRDDFCKQNQEASSDRCSALLQVIFSPLEEEVKAGIYSKPGGYRLFVQKLQDLKKKYYEEPRKGIQAEEILQTYLKSKESMTDAILQTDQTLTEKEKEIEVERVKAESAQASAKMLQEMQRKNEQMMEQKERSYQEHLKQLTEKMENDRVQLLKEQERTLALKLQEQEQLLKEGFQKESRIMKNEIQDLQTKMRRRKACTIS
partner: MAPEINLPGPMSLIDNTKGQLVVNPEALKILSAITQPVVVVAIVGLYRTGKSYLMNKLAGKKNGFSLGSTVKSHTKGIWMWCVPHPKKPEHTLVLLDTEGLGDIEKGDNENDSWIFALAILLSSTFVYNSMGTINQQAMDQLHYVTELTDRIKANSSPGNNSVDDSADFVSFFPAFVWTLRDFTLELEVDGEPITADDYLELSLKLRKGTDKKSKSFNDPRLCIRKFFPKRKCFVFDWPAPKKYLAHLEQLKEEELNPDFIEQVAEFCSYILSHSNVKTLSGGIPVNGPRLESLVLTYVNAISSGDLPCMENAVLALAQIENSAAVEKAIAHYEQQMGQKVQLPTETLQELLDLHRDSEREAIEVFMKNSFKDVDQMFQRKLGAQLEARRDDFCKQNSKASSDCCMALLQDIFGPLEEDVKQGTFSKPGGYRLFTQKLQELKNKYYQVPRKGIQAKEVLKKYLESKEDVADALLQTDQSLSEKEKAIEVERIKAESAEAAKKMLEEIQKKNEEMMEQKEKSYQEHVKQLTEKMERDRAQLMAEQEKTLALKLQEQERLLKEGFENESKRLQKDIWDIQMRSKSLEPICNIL
B2: Guanylate-binding protein 1 (Homo sapiens), P32455 (parent)
chain: B1 chain
partner: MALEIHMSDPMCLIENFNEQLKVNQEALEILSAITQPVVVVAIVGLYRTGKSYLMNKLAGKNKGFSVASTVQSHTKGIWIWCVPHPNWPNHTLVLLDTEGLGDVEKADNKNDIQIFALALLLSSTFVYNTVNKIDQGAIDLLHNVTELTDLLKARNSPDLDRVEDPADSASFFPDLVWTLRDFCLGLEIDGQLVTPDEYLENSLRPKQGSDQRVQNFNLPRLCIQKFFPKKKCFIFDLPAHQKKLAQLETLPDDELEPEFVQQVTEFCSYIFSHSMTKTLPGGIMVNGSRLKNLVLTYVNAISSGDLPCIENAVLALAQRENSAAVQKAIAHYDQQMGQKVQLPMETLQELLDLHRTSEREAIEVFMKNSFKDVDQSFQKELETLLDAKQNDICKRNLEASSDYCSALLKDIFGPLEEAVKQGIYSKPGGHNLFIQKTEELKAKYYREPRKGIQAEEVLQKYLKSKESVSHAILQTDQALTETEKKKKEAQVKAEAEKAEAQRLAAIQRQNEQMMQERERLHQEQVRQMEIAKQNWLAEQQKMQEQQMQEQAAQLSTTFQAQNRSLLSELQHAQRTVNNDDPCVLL

Variants of: B1
Conditions: with gbp2_human GBP2, P32456

Row | Variant | effect of a mutation on the interaction
1 | K51A | disrupting interaction strength

Variants of: B2
Conditions: with gbp5_human GBP5, Q96PP8

Row | Variant | effect of a mutation on the interaction
2 | K51A | disrupting interaction strength
